This assay has as its target Mesothelin (SwissProt reference Q13421-3) (Homo sapiens, UniProt Q13421 37-622). Kind of assay: cell-based or functional assay.

These results are taken from US20150246136A1 (Bayer, published 2015).

B1: Example 98, conjugate of anti-mesothelin antibody MF-Ta (antibody, human IgG1, lambda, V domains shown)
VH: QVELVQSGAEVKKPGESLKISCKGSGYSFTSYWIGWVRQAPGKGLEWMGIIDPGDSRTRYSPSFQGQVTISADKSISTAYLQWSSLKASDTAMYYCARGQLYGGTYMDGWGQGTLVTVSS
VL: DIALTQPASVSGSPGQSITISCTGTSSDIGGYNSVSWYQQHPGKAPKLMIYGVNNRPSGVSNRFSGSKSGNTASLTISGLQAEDEADYYCSSYDIESATPVFGGGTKLTVLG
modifications: toxophore-linker on Cys sulfur, sites not given
Consider B1, for which the “IC50 (nM), HT29 meso+ cells, MTT proliferation assay” value (from here on “IC50 (nM), HT29 meso+ cells”) amounted to 1.7 nM.

B2: Example 105, conjugate of anti-mesothelin antibody MF-Ta (antibody, human IgG1, lambda, V domains shown)
VH: QVELVQSGAEVKKPGESLKISCKGSGYSFTSYWIGWVRQAPGKGLEWMGIIDPGDSRTRYSPSFQGQVTISADKSISTAYLQWSSLKASDTAMYYCARGQLYGGTYMDGWGQGTLVTVSS
VL: DIALTQPASVSGSPGQSITISCTGTSSDIGGYNSVSWYQQHPGKAPKLMIYGVNNRPSGVSNRFSGSKSGNTASLTISGLQAEDEADYYCSSYDIESATPVFGGGTKLTVLG
modifications: toxophore-linker on Lys NH, sites not given
Regarding B2, the “IC50 (nM), HT29 meso+ cells” value worked out at 0.6 nM.

B3: Example 110, conjugate of anti-mesothelin antibody MF-Ta (antibody, human IgG1, lambda, V domains shown)
VH: QVELVQSGAEVKKPGESLKISCKGSGYSFTSYWIGWVRQAPGKGLEWMGIIDPGDSRTRYSPSFQGQVTISADKSISTAYLQWSSLKASDTAMYYCARGQLYGGTYMDGWGQGTLVTVSS
VL: DIALTQPASVSGSPGQSITISCTGTSSDIGGYNSVSWYQQHPGKAPKLMIYGVNNRPSGVSNRFSGSKSGNTASLTISGLQAEDEADYYCSSYDIESATPVFGGGTKLTVLG
modifications: toxophore-linker on Cys sulfur, sites not given
B3: the “IC50 (nM), HT29 meso+ cells” value was found to be 0.002 nM.

B4: Example 101, conjugate of anti-mesothelin antibody MF-Ta (antibody, human IgG1, lambda, V domains shown)
VH: QVELVQSGAEVKKPGESLKISCKGSGYSFTSYWIGWVRQAPGKGLEWMGIIDPGDSRTRYSPSFQGQVTISADKSISTAYLQWSSLKASDTAMYYCARGQLYGGTYMDGWGQGTLVTVSS
VL: DIALTQPASVSGSPGQSITISCTGTSSDIGGYNSVSWYQQHPGKAPKLMIYGVNNRPSGVSNRFSGSKSGNTASLTISGLQAEDEADYYCSSYDIESATPVFGGGTKLTVLG
modifications: toxophore-linker on Cys sulfur, sites not given
For the molecule B4, the “IC50 (nM), HT29 meso+ cells” value came out at 3 nM.

B5: Example 106, conjugate of anti-mesothelin antibody MF-Ta (antibody, human IgG1, lambda, V domains shown)
VH: QVELVQSGAEVKKPGESLKISCKGSGYSFTSYWIGWVRQAPGKGLEWMGIIDPGDSRTRYSPSFQGQVTISADKSISTAYLQWSSLKASDTAMYYCARGQLYGGTYMDGWGQGTLVTVSS
VL: DIALTQPASVSGSPGQSITISCTGTSSDIGGYNSVSWYQQHPGKAPKLMIYGVNNRPSGVSNRFSGSKSGNTASLTISGLQAEDEADYYCSSYDIESATPVFGGGTKLTVLG
modifications: toxophore-linker on Cys sulfur, sites not given
As to B5, the “IC50 (nM), HT29 meso+ cells” value came out at 0.8 nM.

B6: Example 107, conjugate of anti-mesothelin antibody MF-Ta (antibody, human IgG1, lambda, V domains shown)
VH: QVELVQSGAEVKKPGESLKISCKGSGYSFTSYWIGWVRQAPGKGLEWMGIIDPGDSRTRYSPSFQGQVTISADKSISTAYLQWSSLKASDTAMYYCARGQLYGGTYMDGWGQGTLVTVSS
VL: DIALTQPASVSGSPGQSITISCTGTSSDIGGYNSVSWYQQHPGKAPKLMIYGVNNRPSGVSNRFSGSKSGNTASLTISGLQAEDEADYYCSSYDIESATPVFGGGTKLTVLG
modifications: toxophore-linker on Cys sulfur, sites not given
Turning to B6, the “IC50 (nM), HT29 meso+ cells” value was 3 nM.

B7: Example 103, conjugate of anti-mesothelin antibody MF-Ta (antibody, human IgG1, lambda, V domains shown)
VH: QVELVQSGAEVKKPGESLKISCKGSGYSFTSYWIGWVRQAPGKGLEWMGIIDPGDSRTRYSPSFQGQVTISADKSISTAYLQWSSLKASDTAMYYCARGQLYGGTYMDGWGQGTLVTVSS
VL: DIALTQPASVSGSPGQSITISCTGTSSDIGGYNSVSWYQQHPGKAPKLMIYGVNNRPSGVSNRFSGSKSGNTASLTISGLQAEDEADYYCSSYDIESATPVFGGGTKLTVLG
modifications: toxophore-linker on Cys sulfur, sites not given
Take B7: the “IC50 (nM), HT29 meso+ cells” value worked out at 10 nM.

B8: Example 108, conjugate of anti-mesothelin antibody MF-Ta (antibody, human IgG1, lambda, V domains shown)
VH: QVELVQSGAEVKKPGESLKISCKGSGYSFTSYWIGWVRQAPGKGLEWMGIIDPGDSRTRYSPSFQGQVTISADKSISTAYLQWSSLKASDTAMYYCARGQLYGGTYMDGWGQGTLVTVSS
VL: DIALTQPASVSGSPGQSITISCTGTSSDIGGYNSVSWYQQHPGKAPKLMIYGVNNRPSGVSNRFSGSKSGNTASLTISGLQAEDEADYYCSSYDIESATPVFGGGTKLTVLG
modifications: toxophore-linker on Cys sulfur, sites not given
Turning to B8, the “IC50 (nM), HT29 meso+ cells” value worked out at 0.74 nM.

B9: Example 104, conjugate of anti-mesothelin antibody MF-Ta (antibody, human IgG1, lambda, V domains shown)
VH: QVELVQSGAEVKKPGESLKISCKGSGYSFTSYWIGWVRQAPGKGLEWMGIIDPGDSRTRYSPSFQGQVTISADKSISTAYLQWSSLKASDTAMYYCARGQLYGGTYMDGWGQGTLVTVSS
VL: DIALTQPASVSGSPGQSITISCTGTSSDIGGYNSVSWYQQHPGKAPKLMIYGVNNRPSGVSNRFSGSKSGNTASLTISGLQAEDEADYYCSSYDIESATPVFGGGTKLTVLG
modifications: toxophore-linker on Lys NH, sites not given
B9: the “IC50 (nM), HT29 meso+ cells” value was found to be 1.8 nM.

B10: Example 102, conjugate of anti-mesothelin antibody MF-Ta (antibody, human IgG1, lambda, V domains shown)
VH: QVELVQSGAEVKKPGESLKISCKGSGYSFTSYWIGWVRQAPGKGLEWMGIIDPGDSRTRYSPSFQGQVTISADKSISTAYLQWSSLKASDTAMYYCARGQLYGGTYMDGWGQGTLVTVSS
VL: DIALTQPASVSGSPGQSITISCTGTSSDIGGYNSVSWYQQHPGKAPKLMIYGVNNRPSGVSNRFSGSKSGNTASLTISGLQAEDEADYYCSSYDIESATPVFGGGTKLTVLG
modifications: toxophore-linker on Lys NH, sites not given
In the case of B10, the “IC50 (nM), HT29 meso+ cells” value is 7.2 nM.

B11: Example 100, conjugate of anti-mesothelin antibody MF-Ta (antibody, human IgG1, lambda, V domains shown)
VH: QVELVQSGAEVKKPGESLKISCKGSGYSFTSYWIGWVRQAPGKGLEWMGIIDPGDSRTRYSPSFQGQVTISADKSISTAYLQWSSLKASDTAMYYCARGQLYGGTYMDGWGQGTLVTVSS
VL: DIALTQPASVSGSPGQSITISCTGTSSDIGGYNSVSWYQQHPGKAPKLMIYGVNNRPSGVSNRFSGSKSGNTASLTISGLQAEDEADYYCSSYDIESATPVFGGGTKLTVLG
modifications: toxophore-linker on Cys sulfur, sites not given
For B11, the “IC50 (nM), HT29 meso+ cells” value was 2 nM.

B12: Example 109, conjugate of anti-mesothelin antibody MF-Ta (antibody, human IgG1, lambda, V domains shown)
VH: QVELVQSGAEVKKPGESLKISCKGSGYSFTSYWIGWVRQAPGKGLEWMGIIDPGDSRTRYSPSFQGQVTISADKSISTAYLQWSSLKASDTAMYYCARGQLYGGTYMDGWGQGTLVTVSS
VL: DIALTQPASVSGSPGQSITISCTGTSSDIGGYNSVSWYQQHPGKAPKLMIYGVNNRPSGVSNRFSGSKSGNTASLTISGLQAEDEADYYCSSYDIESATPVFGGGTKLTVLG
modifications: toxophore-linker on Cys sulfur, sites not given
Turning to B12, the “IC50 (nM), HT29 meso+ cells” value was determined as 0.09 nM.

B13: Example 111, conjugate of anti-mesothelin antibody MF-Ta (antibody, human IgG1, lambda, V domains shown)
VH: QVELVQSGAEVKKPGESLKISCKGSGYSFTSYWIGWVRQAPGKGLEWMGIIDPGDSRTRYSPSFQGQVTISADKSISTAYLQWSSLKASDTAMYYCARGQLYGGTYMDGWGQGTLVTVSS
VL: DIALTQPASVSGSPGQSITISCTGTSSDIGGYNSVSWYQQHPGKAPKLMIYGVNNRPSGVSNRFSGSKSGNTASLTISGLQAEDEADYYCSSYDIESATPVFGGGTKLTVLG
modifications: toxophore-linker on Cys sulfur, sites not given
Turning to B13, the “IC50 (nM), HT29 meso+ cells” value is 0.7 nM.

B14: Example 99, conjugate of anti-mesothelin antibody MF-Ta (antibody, human IgG1, lambda, V domains shown)
VH: QVELVQSGAEVKKPGESLKISCKGSGYSFTSYWIGWVRQAPGKGLEWMGIIDPGDSRTRYSPSFQGQVTISADKSISTAYLQWSSLKASDTAMYYCARGQLYGGTYMDGWGQGTLVTVSS
VL: DIALTQPASVSGSPGQSITISCTGTSSDIGGYNSVSWYQQHPGKAPKLMIYGVNNRPSGVSNRFSGSKSGNTASLTISGLQAEDEADYYCSSYDIESATPVFGGGTKLTVLG
modifications: toxophore-linker on Cys sulfur, sites not given
For B14, the “IC50 (nM), HT29 meso+ cells” value was 0.27 nM.
